Legend:
[1] = target: PSA in seminal fluid of normal men (human) (UniProt P07288); assay: MAA-Sepharose column, 5 ng purified PSA applied, 3.5 ng recovered in all fractions
[2] = target: PSA (prostate specific antigen) in serum of prostate cancer patient (human) (UniProt P07288); assay: TJA-II-Sepharose column, binding rate of PSA
[3] = target: PSA (prostate specific antigen) in serum of prostatic hypertrophy patient (human) (UniProt P07288); assay: TJA-II-Sepharose column, binding rate of PSA
[4] = target: PSA in seminal fluid of normal men (human) (UniProt P07288); assay: TJA-II-Sepharose column, binding rate of PSA
[5] = target: Sialidase-treated PSA in seminal fluid of normal men (human) (UniProt P07288); assay: TJA-II-Sepharose column, sialidase-treated sample
[6] = target: Sialidase-treated PSA in serum of prostate cancer patient (human) (UniProt P07288); assay: TJA-II-Sepharose column, sialidase-treated sample
[7] = target: Sialidase-treated PSA in serum of prostatic hypertrophy patient (human) (UniProt P07288); assay: TJA-II-Sepharose column, sialidase-treated sample
[8] = target: PSA (prostate specific antigen) in serum of prostate cancer patient (human) (UniProt P07288); assay: TJA-II-Sepharose column, 20 sera of prostate cancer patients
[9] = target: PSA (prostate specific antigen) in serum of prostatic hypertrophy patient (human) (UniProt P07288); assay: TJA-II-Sepharose column, 20 sera of prostatic hypertrophy patients
[10] = target: PSA (prostate specific antigen) in serum of prostate cancer patient (human) (UniProt P07288); assay: TJA-II-Sepharose column, before sialidase treatment (Table 4 prints 16%)
[11] = target: PSA (prostate specific antigen) in serum of prostate cancer patient (human) (UniProt P07288); assay: TJA-II-Sepharose column, serum of prostate cancer patient 1; total PSA immunoassay of fractions
[12] = target: PSA (prostate specific antigen) in serum of prostate cancer patient (human) (UniProt P07288); assay: TJA-II-Sepharose column, serum of prostate cancer patient 2; total PSA immunoassay of fractions
[13] = target: PSA (prostate specific antigen) in serum of prostate cancer patient (human) (UniProt P07288); assay: TJA-II-Sepharose column, serum of prostate cancer patient 3; total PSA immunoassay of fractions
[14] = target: PSA (prostate specific antigen) in serum of prostate cancer patient (human) (UniProt P07288); assay: TJA-II-Sepharose column, serum of prostate cancer patient 4; total PSA immunoassay of fractions
[15] = target: PSA (prostate specific antigen) in serum of prostate cancer patient (human) (UniProt P07288); assay: TJA-II-Sepharose column, serum of prostate cancer patient 5; total PSA immunoassay of fractions
[16] = target: PSA (prostate specific antigen) in serum of prostate cancer patient (human) (UniProt P07288); assay: TJA-II-Sepharose column, serum of prostate cancer patient 6; total PSA immunoassay of fractions
[17] = target: PSA (prostate specific antigen) in serum of prostate cancer patient (human) (UniProt P07288); assay: TJA-II-Sepharose column, serum of prostate cancer patient 7; total PSA immunoassay of fractions
[18] = target: PSA (prostate specific antigen) in serum of prostate cancer patient (human) (UniProt P07288); assay: TJA-II-Sepharose column, serum of prostate cancer patient 8; total PSA immunoassay of fractions
[19] = target: PSA (prostate specific antigen) in serum of prostate cancer patient (human) (UniProt P07288); assay: TJA-II-Sepharose column, serum of prostate cancer patient 9; total PSA immunoassay of fractions
[20] = target: PSA (prostate specific antigen) in serum of prostate cancer patient (human) (UniProt P07288); assay: TJA-II-Sepharose column, serum of prostate cancer patient 10; total PSA immunoassay of fractions
[21] = target: PSA (prostate specific antigen) in serum of prostate cancer patient (human) (UniProt P07288); assay: TJA-II-Sepharose column, serum of prostate cancer patient 11; total PSA immunoassay of fractions
[22] = target: PSA (prostate specific antigen) in serum of prostate cancer patient (human) (UniProt P07288); assay: TJA-II-Sepharose column, serum of prostate cancer patient 12; total PSA immunoassay of fractions
[23] = target: PSA (prostate specific antigen) in serum of prostate cancer patient (human) (UniProt P07288); assay: TJA-II-Sepharose column, serum of prostate cancer patient 13; total PSA immunoassay of fractions
[24] = target: PSA (prostate specific antigen) in serum of prostate cancer patient (human) (UniProt P07288); assay: TJA-II-Sepharose column, serum of prostate cancer patient 14; total PSA immunoassay of fractions
[25] = target: PSA (prostate specific antigen) in serum of prostate cancer patient (human) (UniProt P07288); assay: TJA-II-Sepharose column, serum of prostate cancer patient 15; total PSA immunoassay of fractions
[26] = target: PSA (prostate specific antigen) in serum of prostatic hypertrophy patient (human) (UniProt P07288); assay: TJA-II-Sepharose column, serum of prostatic hypertrophy patient 1; total PSA immunoassay of fractions
[27] = target: PSA (prostate specific antigen) in serum of prostatic hypertrophy patient (human) (UniProt P07288); assay: TJA-II-Sepharose column, serum of prostatic hypertrophy patient 2; total PSA immunoassay of fractions
[28] = target: PSA (prostate specific antigen) in serum of prostatic hypertrophy patient (human) (UniProt P07288); assay: TJA-II-Sepharose column, serum of prostatic hypertrophy patient 3; total PSA immunoassay of fractions
[29] = target: PSA (prostate specific antigen) in serum of prostatic hypertrophy patient (human) (UniProt P07288); assay: TJA-II-Sepharose column, serum of prostatic hypertrophy patient 4; total PSA immunoassay of fractions
[30] = target: PSA (prostate specific antigen) in serum of prostatic hypertrophy patient (human) (UniProt P07288); assay: TJA-II-Sepharose column, serum of prostatic hypertrophy patient 5; total PSA immunoassay of fractions
[31] = target: PSA (prostate specific antigen) in serum of prostatic hypertrophy patient (human) (UniProt P07288); assay: TJA-II-Sepharose column, serum of prostatic hypertrophy patient 6; total PSA immunoassay of fractions
[32] = target: PSA (prostate specific antigen) in serum of prostatic hypertrophy patient (human) (UniProt P07288); assay: TJA-II-Sepharose column, serum of prostatic hypertrophy patient 7; total PSA immunoassay of fractions
[33] = target: PSA (prostate specific antigen) in serum of prostatic hypertrophy patient (human) (UniProt P07288); assay: TJA-II-Sepharose column, serum of prostatic hypertrophy patient 8; total PSA immunoassay of fractions
[34] = target: PSA (prostate specific antigen) in serum of prostatic hypertrophy patient (human) (UniProt P07288); assay: TJA-II-Sepharose column, serum of prostatic hypertrophy patient 9; total PSA immunoassay of fractions
[35] = target: PSA (prostate specific antigen) in serum of prostate cancer patient (human) (UniProt P07288); assay: UEA-I agarose column, binding rate of PSA
[36] = target: PSA (prostate specific antigen) in serum of prostate cancer patient (human) (UniProt P07288); assay: WFA-Sepharose column, binding rate of PSA
[37] = target: PSA (prostate specific antigen) in serum of prostate cancer patient (human) (UniProt P07288); assay: WFA-Sepharose column, serum of prostate cancer patient 6; total PSA immunoassay of fractions
[38] = target: PSA (prostate specific antigen) in serum of prostate cancer patient (human) (UniProt P07288); assay: WFA-Sepharose column, serum of prostate cancer patient 12; total PSA immunoassay of fractions
[39] = target: PSA (prostate specific antigen) in serum of prostate cancer patient (human) (UniProt P07288); assay: WFA-Sepharose column, serum of prostate cancer patient 15; total PSA immunoassay of fractions

Sequence of Maackia amurensis agglutinin (P0DKL3 30-278): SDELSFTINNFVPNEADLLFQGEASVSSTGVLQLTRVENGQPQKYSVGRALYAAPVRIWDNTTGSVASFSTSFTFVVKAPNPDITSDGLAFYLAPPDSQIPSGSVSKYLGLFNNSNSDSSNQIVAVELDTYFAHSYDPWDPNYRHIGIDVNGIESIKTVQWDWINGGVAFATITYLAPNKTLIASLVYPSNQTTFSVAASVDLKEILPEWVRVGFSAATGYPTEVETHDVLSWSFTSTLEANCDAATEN

Maackia amurensis agglutinin was tested. Which percent considered bound to the column [1] did it give?
The percent considered bound to the column was 30%.

How did the binding rate [2] turn out when Trichosanthes japonica agglutinin-II was run?
Its binding rate is 16%.

What about the binding rate [3] of the same substance?
The binding rate was 2%.

What about the binding rate [4] of the same substance?
The binding rate was 2%.

And the binding rate [5]?
Its binding rate is 8.4%.

What about the binding rate [6] of the same substance?
Its binding rate is 59%.

And the binding rate [7]?
The binding rate was 2%.

And the TJA-II binding rate [8]?
The TJA-II binding rate was greater than 2%.

And the TJA-II binding rate [9]?
Its TJA-II binding rate is less than 2%.

And the binding rate [10]?
The binding rate was 11%.

What about the TJA-II binding ratio [11] of the same substance?
Its TJA-II binding ratio is 6.4%.

What about the TJA-II-bound PSA in serum sample [11] of the same substance?
The TJA-II-bound PSA in serum sample was 128 ng/mL.

What about the TJA-II binding ratio [12] of the same substance?
Its TJA-II binding ratio is 5%.

What about the TJA-II-bound PSA in serum sample [12] of the same substance?
The TJA-II-bound PSA in serum sample was 6.6 ng/mL.

What about the TJA-II binding ratio [13] of the same substance?
The TJA-II binding ratio was 3%.

And the TJA-II-bound PSA in serum sample [13]?
Its TJA-II-bound PSA in serum sample is 2.4 ng/mL.

And the TJA-II binding ratio [14]?
The TJA-II binding ratio was 4.5%.

What about the TJA-II-bound PSA in serum sample [14] of the same substance?
Its TJA-II-bound PSA in serum sample is 9.5 ng/mL.

And the TJA-II binding ratio [15]?
Its TJA-II binding ratio is 7%.

And the TJA-II-bound PSA in serum sample [15]?
The TJA-II-bound PSA in serum sample was 6.3 ng/mL.

What about the TJA-II binding ratio [16] of the same substance?
The TJA-II binding ratio was 10.8%.

What about the TJA-II-bound PSA in serum sample [16] of the same substance?
Its TJA-II-bound PSA in serum sample is 388 ng/mL.

What about the TJA-II binding ratio [17] of the same substance?
The TJA-II binding ratio was 8.2%.

What about the TJA-II-bound PSA in serum sample [17] of the same substance?
Its TJA-II-bound PSA in serum sample is 5.58 ng/mL.

And the TJA-II binding ratio [18]?
Its TJA-II binding ratio is 21%.

And the TJA-II-bound PSA in serum sample [18]?
Its TJA-II-bound PSA in serum sample is 0.9 ng/mL.

What about the TJA-II binding ratio [19] of the same substance?
The TJA-II binding ratio was 14%.

What about the TJA-II-bound PSA in serum sample [19] of the same substance?
The TJA-II-bound PSA in serum sample was 0.84 ng/mL.

And the TJA-II binding ratio [20]?
The TJA-II binding ratio was 4.6%.

What about the TJA-II-bound PSA in serum sample [20] of the same substance?
Its TJA-II-bound PSA in serum sample is 0.46 ng/mL.

And the TJA-II binding ratio [21]?
Its TJA-II binding ratio is 23%.

What about the TJA-II-bound PSA in serum sample [21] of the same substance?
Its TJA-II-bound PSA in serum sample is 1.04 ng/mL.

What about the TJA-II binding ratio [22] of the same substance?
The TJA-II binding ratio was 8%.

And the TJA-II-bound PSA in serum sample [22]?
Its TJA-II-bound PSA in serum sample is 4.3 ng/mL.

What about the TJA-II binding ratio [23] of the same substance?
The TJA-II binding ratio was 5%.

What about the TJA-II-bound PSA in serum sample [23] of the same substance?
The TJA-II-bound PSA in serum sample was 0.24 ng/mL.

And the TJA-II binding ratio [24]?
The TJA-II binding ratio was 4%.

And the TJA-II-bound PSA in serum sample [24]?
Its TJA-II-bound PSA in serum sample is 0.85 ng/mL.

And the TJA-II binding ratio [25]?
The TJA-II binding ratio was 5%.

What about the TJA-II-bound PSA in serum sample [25] of the same substance?
The TJA-II-bound PSA in serum sample was 0.61 ng/mL.

And the TJA-II binding ratio [26]?
Its TJA-II binding ratio is 1.2%.

And the TJA-II-bound PSA in serum sample [26]?
The TJA-II-bound PSA in serum sample was 0.2 ng/mL.

And the TJA-II binding ratio [27]?
Its TJA-II binding ratio is less than 0.05%.

And the TJA-II binding ratio [28]?
The TJA-II binding ratio was 0.2%.

And the TJA-II-bound PSA in serum sample [28]?
The TJA-II-bound PSA in serum sample was 0.02 ng/mL.

What about the TJA-II binding ratio [29] of the same substance?
Its TJA-II binding ratio is 0.6%.

What about the TJA-II-bound PSA in serum sample [29] of the same substance?
The TJA-II-bound PSA in serum sample was 0.04 ng/mL.

What about the TJA-II binding ratio [30] of the same substance?
The TJA-II binding ratio was 1.5%.

What about the TJA-II-bound PSA in serum sample [30] of the same substance?
Its TJA-II-bound PSA in serum sample is 0.12 ng/mL.

What about the TJA-II binding ratio [31] of the same substance?
Its TJA-II binding ratio is 1.8%.

What about the TJA-II-bound PSA in serum sample [31] of the same substance?
Its TJA-II-bound PSA in serum sample is 0.17 ng/mL.

What about the TJA-II binding ratio [32] of the same substance?
The TJA-II binding ratio was less than 0.05%.

What about the TJA-II binding ratio [33] of the same substance?
The TJA-II binding ratio was 1%.

What about the TJA-II-bound PSA in serum sample [33] of the same substance?
The TJA-II-bound PSA in serum sample was 0.09 ng/mL.

And the TJA-II binding ratio [34]?
Its TJA-II binding ratio is less than 0.05%.

With “Ulex europaeus agglutinin-1 (from UniProt P22972 1-243)” as the substance, how does the binding rate [35] read?
The binding rate was 5%.

Which results are given for Wisteria floribunda agglutinin?
binding rate [36]: 11%; WFA binding ratio [37]: 9.4%; WFA-bound PSA in serum sample [37]: 328 ng/mL; WFA binding ratio [38]: 7.5%; WFA-bound PSA in serum sample [38]: 3.91 ng/mL; WFA binding ratio [39]: 4.2%; WFA-bound PSA in serum sample [39]: 0.49 ng/mL

Source: US20120282612A1
